According to the nanobody polyreactivity screen of Harvey et al. (2022):

Assay: yeast display, Sf9 membrane polyspecificity reagent, FACS + sequencing; frameworks hold sequencing errors
Outline: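 Nanobodies came from a synthetic yeast display library in Saccharomyces cerevisiae BJ5465, induced with galactose for 36–48 hours and stained for 1 hour at 4 °C with 10% biotinylated, detergent-solubilized Sf9 membrane reagent. Cells were enriched on streptavidin microbeads and then FACS-sorted, with low and high (top ~1%) gates set on anti-HA fluorescence for expression and streptavidin fluorescence for reagent binding. Each polyreactivity label reflects the gate a clone came from. Genes were amplified by colony PCR, sequenced by MiSeq 2 × 250 and filtered by CDR length.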

Sequence | polyreactivity (PSR sort gate)
QVQLVESGGGLVQAGGSLRLSCAASGYTFAYNGMGWYRQAPGKERELVAVIDWSTGDTYYADSVKGRFTISRDNAKNTVYLQMNSLKPEDTAVYYCAADFFEGLYVFWGQGTQVTVSW | low polyreactivity
QVQLVESGGGLVQAGGSLRLSCAASGYTFDLYAMGWYRQAPGKERELVADISSGGSTNYADSVKGRFTISRDNAKNTVYLQMNSLKPEDTAVYYCAVDADRTLFGQYYVSEYGGGYWGQGTQVTVSS | low polyreactivity
QVQLVESGGGLVQAGGSLRLSCAASGYTFGAYAMGWNRQAPGKERELVAAITVRAGRTYYADSVKGRFTISRDNAKNSVYLQMNSLKPEDTSVYYCARRNPLGGNEHDYWGHGTQVTVSS | low polyreactivity
QVQLVESGGGLVQAGGSLRLSCAASGYTFGINAMGWYRQAPGKERELVAAITTGGSTNYADSVKGRFTISRDNAKNSVYLQMNSLKPEDTAVYYCNASWDVWNANYWYPGAYYYWGQGTQVTVSS | low polyreactivity
QVQLVESGGGLVQAGGSLRLSCAASGYTFGKYAMGWYRQAPGKERELVAGISSRGGSTYYADSVKGRFTISRDNAKNTVYLQMNSLKPEDTAVYYCAAVAYTGGPRKLGFNYWGQGTQVSVSS | high polyreactivity
QVQLVESGGGLVQAGGSLRLSCAASGYTFGKYVMGWYRQAPGKERELVAAISKSGSGTYYADSVKGRFTISRDNAKNTVYFQMNSLKPEDTAVYYFAARGYGFPELDYWGQGTQVTVSS | high polyreactivity
QVQLVESGGGLVQAGGSLRLSCAASGYTFGSNAMGWYRQAPGKERELVAAISNGGSTNYADSVKGRFTISRDNAKNTVYLQMTSLKPEDTAVYYCAAASRWHIGYWRYDYWGQGTQVTVSS | low polyreactivity
QVQLVESGGGLVQAGGSLRLSCAASGYTFGSYAMGWYRQAPGKERELVAAITRRGGSTYYADSVKGRFTISRDNAKNTVYLQMTSLKPEDTEVYYCAKRSRDYVSSFLTSHANDYWGQGTQVTVSS | high polyreactivity
QVQLVESGGGLVQAGGSLRLSCAASGYTFGYYAMGWYRQAPGKERELVAAISSGGSTYYADSVKGRFTISRDNAKNTVYLQMNSLKPEDTAVYYCAVVRYLGDRGMNYWGQGTQVTVSS | low polyreactivity
QVQLVESGGGLVQAGGSLRLSCAASGYTFIDNAMGWYRQAPGKERELVAAISWSVDRTYYADSVKGRFTISRDNAKNTVYLQMNSLKPEDTAVYYCAAVHWWSSSLRMYYWGQGTQVTVSS | low polyreactivity
QVQLVESGGGLVQAGGSLRLSCAASGYTFIVNAMGWYRQAPGKERELVAAITSGGGTYYADSVKGRFTISRDNAKNTVYLQMNCLKPEDTAVYYCAARSGYRYVESDYWGQGTQVTVSS | high polyreactivity
QVQLVESGGGLVQAGGSLRLSCAASGYTFKAYAMGWNIQAPGKERELVAAISWSGARTYYAYSVKGRFTISRDNAKNTVYLEMNRLKPEYTAVYYCAASNAVYAGRSYRDEYWGQGTQVTVSS | high polyreactivity
QVQLVESGGGLVQAGGSLRLSCAASGYTFKTNDMGWSRQAPGKEREFVAAIDSGGNTYYADSVKGRFTISRDNAKNTVYLQMNSLKPEDTAVYYCAAYRDYQYDYWGQGTQVTVSS | low polyreactivity
QVQLVESGGGLVQAGGSLRLSCAASGYTFLIYAMGGYRQAPGKERELVASISRSGGSTYYADSVKGRFTISRDNAKKTVYLQMNSLKPEDTAVYYCAARNPYRYFYNYEYWGQGTQVTVSS | low polyreactivity
QVQLVESGGGLVQAGGSLRLSCAASGYTFLKYAMGWYRQAPGKERELVAAISGRGGRTYYADSVKGRFTISRDNAKNTVYLQMNSLKPEDTAVYYCNAVRNSPDDYWGQGTQVTVSS | high polyreactivity
QVQLVESGGGLVQAGGSLRLSCAASGYTFPLYAMGWYRQAAGKERELVADINIGGASTYYADSVKGRFTISRHNAKNTVYLQMNSLKPEESAVYYCAKEYYDGYFPTFDYDYWGQGTQVTVSS | low polyreactivity
QVQLVESGGGLVQAGGSLRLSCAASGYTFPRYAMGWYRQAPGKERELVATINWTGSNTYADSVKGRFTISRDNAKNTVYLQMNSLKPEDTAVYYCAKDSWNVRSGRYNYWGQGTQVTVSS | low polyreactivity
